Assay results reported in publication PMC3777412.

How the values were obtained:
pY542 peptide (human) = assay: SPR
pY580 peptide (human) = assay: SPR

C-SH2 domain of Shp2, histidine-tagged (domain or fragment)
Kd (pY542 peptide (human)): 15.1 µM | Kd (pY580 peptide (human)): 294 µM
